Test results published in patent publication US20220112292A1 (ALETA BIOTHERAPEUTICS, published 2022).

Tests used:
[1] = target: T1, Clec12A-His (Sino Biological, 11896-H07H) (human, UniProt Q5QGZ9 65-265); experiment: competition ELISA on coated CLEC12a-His, biotinylated VHH against unlabelled VHH
T1 construct: Bought soluble protein; also called soluble CLEC12a-His; Sino Biological Clec12A
T1 chain: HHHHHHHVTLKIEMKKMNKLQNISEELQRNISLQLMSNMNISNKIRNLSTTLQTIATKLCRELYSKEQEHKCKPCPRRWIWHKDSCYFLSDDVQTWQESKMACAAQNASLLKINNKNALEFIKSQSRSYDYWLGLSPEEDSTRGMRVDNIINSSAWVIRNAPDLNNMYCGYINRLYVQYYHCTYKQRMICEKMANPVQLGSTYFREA
Experimental: ELISAs were used to determine if the VHH clones recognized distinct or similar epitopes. […] The plate was blocked with 0.3% nonfat milk in TBS (200 ul/well) for 1 hr at RT. The plates were washed 3× with 1×TBST (0.1 M Tris, 0.5 M NaCl and 0.05% Tween-20). The test anti-CLEC12a VHHs were added at 10 ug/ml horizontally across the plate, 100 ul per well and incubated for 1 h. Without washing, the test anti-CLEC12a biotinylated VHHs were added at 0.2 ug/ml vertically down the plate, 100 ul per well and incubate for 1 h. After being washed 3× with 1×TBST, HRP-conjugated streptavidin (Pierce #21130) at 1:2000 (100 ul/well) was added, followed by incubation at RT in the dark for 1 hr. For detection, 1-Step Ultra TMB-ELISA reagent (Thermo Fisher #34028) was added at 100 ul per well and read at 450 nm. […] The 1H1 VHH was distinct from these, and 2C2 was intermediate. Results are depicted in FIGS. 7A-7D.

CLL-1 on U937 cells = target: T2, CLL-1 on U937 cells (human, UniProt Q5QGZ9 1-265); experiment: flow cytometry on U937 cells, clone lysate, anti-cMyc-PE (Table 3 summary)
T2 construct: whole, on cells; also called CLEC12A; Clec12A
T2 sequence: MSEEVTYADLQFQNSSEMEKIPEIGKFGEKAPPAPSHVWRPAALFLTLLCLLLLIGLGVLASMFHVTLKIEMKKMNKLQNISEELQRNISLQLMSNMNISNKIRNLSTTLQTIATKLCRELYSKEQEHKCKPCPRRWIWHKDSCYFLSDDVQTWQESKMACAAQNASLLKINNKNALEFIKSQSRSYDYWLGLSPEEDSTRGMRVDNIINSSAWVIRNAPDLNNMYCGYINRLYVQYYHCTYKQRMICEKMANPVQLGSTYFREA

binding result [1]: binds
% FACS positive (CLL-1 on U937 cells): 77.2%
B1: VHH clone 2C2 (VHH)
VHH: QVQLQQSGGGLVQAGGSLTLSCAATGRTIDNGAMAWFRQAPGKQRELVAAINWSGGATFYTDSVKYRFTISRDNVRHTLDLQMTSLKPEDTTIYFCASRRGVDLRRNSYEYDYWGRGTLVTVSS
notes: Includes myc and His tags
